Test results taken from the supplement of paper PMC10567573.

B1: CLINT1 (parent)
chain: VVTSAREHIYDLRSLENYHFVDEH

Variants of: B1
Assay: protein stability index of a GFP-peptide fusion (GPS, HEK-293T) (PSI 1-6); higher = more stable
Settings: c terminus: a fixed tail appended
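Also: lentivirally expressed fusions sorted by FACS into six bins by GFP to DsRed ratio, PSI derived from sequencing read proportions per bin multiplied by bin number.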

Protein stability index, by site and new letter:
V2: H 3.44 | W 2.38 | L 3.23 | K 3.01 | C 2.9 | M 3.2 | N 3.62 | P 4.19 | A 3.34 | S 3.12 | R 3.13 | T 3.24 | E 3.67 | F 2.56 | D 4.26 | G 3.34 | I 2.3 | Q 3.53 | Y 2.67
A5: W 2.16 | H 2.83 | P 3.35 | Q 3.71 | I 3.23 | S 3.15 | K 2.36 | V 2.24 | T 2.98 | C 2.08 | L 1.97 | Y 2.24 | N 2.92 | E 3.81 | R 2.67 | G 3.15 | M 2.57 | D 3.53 | F 2.53
S4: A 2.41 | F 2.03 | D 3.82 | T 3.18 | M 2.24 | L 1.95 | G 2.73 | W 2.48 | Q 2.91 | H 2.82 | C 1.64 | P 3.4 | K 2.52 | E 3.04 | I 2.1 | Y 1.48 | N 2.84 | R 2.65 | V 2.47
S14: E 2.87 | Q 2.31 | F 2.57 | I 2.15 | V 2.11 | G 3.45 | C 2.24 | L 2.72 | T 2.63 | D 3.24 | M 2.49 | W 2.2 | P 2.24 | N 3.07 | K 2.69 | H 2.25 | R 2.44 | A 3.52 | Y 2.02
L15: S 2.95 | V 3.04 | K 3.36 | F 2.4 | M 2.62 | T 3.2 | Y 2.91 | W 2.56 | E 3.46 | N 3.1 | A 3.32 | Q 3.66 | C 3.05 | I 2.99 | P 3.31 | R 3.53 | H 3.58 | D 3.8 | G 3.56
H8: N 2.83 | C 2.1 | M 2.33 | A 2.52 | R 2.61 | F 1.9 | Q 3.16 | P 3.21 | L 2.29 | K 2.45 | Y 1.89 | G 3.13 | W 2.12 | I 2.65 | T 2.91 | V 2.22 | E 2.99 | S 3.31 | D 3.48
E7: K 2.77 | M 1.39 | P 2.44 | T 2.73 | R 2.07 | G 1.73 | W 2.44 | A 2.41 | D 2.29 | Q 1.85 | H 2.17 | L 2.3 | F 1.9 | Y 2.57 | C 1.86 | V 2.26 | S 2.4 | N 2.64
R6: P 3.08 | D 3.63 | W 3.17 | G 3.04 | Y 2.35 | E 3.87 | L 1.75 | A 2.45 | C 2.91 | I 1.84 | M 2.33 | T 2.75 | V 2.31 | F 1.55 | K 3.48 | H 3.07 | N 3.14 | S 3.93 | Q 3.4
L12: E 4.03 | R 3.6 | P 3.21 | H 3.32 | C 2.61 | M 3.39 | A 3.42 | I 2.89 | Y 2.4 | Q 4.09 | V 2.7 | F 2.61 | K 3.78 | N 3.78 | D 4.08 | S 3.13
